Measurements as given in article PMC11235164.

Biological target: T1, trigger factor (Escherichia coli), P0A850
T1 chain: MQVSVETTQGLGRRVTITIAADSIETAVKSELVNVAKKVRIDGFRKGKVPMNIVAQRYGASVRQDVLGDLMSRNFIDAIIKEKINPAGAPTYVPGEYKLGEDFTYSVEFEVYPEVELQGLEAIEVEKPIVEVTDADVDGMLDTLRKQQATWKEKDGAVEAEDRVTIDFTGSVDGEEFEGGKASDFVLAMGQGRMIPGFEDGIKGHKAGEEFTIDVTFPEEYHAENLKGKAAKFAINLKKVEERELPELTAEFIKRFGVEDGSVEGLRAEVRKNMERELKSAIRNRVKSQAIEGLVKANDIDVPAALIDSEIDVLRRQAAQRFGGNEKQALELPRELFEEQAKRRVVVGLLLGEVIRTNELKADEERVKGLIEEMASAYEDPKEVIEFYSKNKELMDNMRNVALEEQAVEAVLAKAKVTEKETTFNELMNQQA
Experiment: microfluidic diffusional sizing
Settings: remark: other sources report otherwise

B1: trigger factor, P0A850 (protein)
chain: T1 chain
Kd: 1500 nM
